# Results as given in US9200252B2, “Compositions for inducing differentiation into retinal cells from retinal progenitor cells or inducing proliferation of retinal cells comprising Wnt signaling pathway activators” (SNU R&DB Foundation, priority 2009, dated 2015).
# “And” between values parts separate entries of the source, which are not always exact repeats. Equal entries are not always repeated.
# B1: Wnt3a: recombinant Wnt3a (R&D Systems), Wnt signaling pathway activator (protein, UniProt P56704 19-352, looked up)
# Protein Wnt-3a: SYPIWWSLAVGPQYSSLGSQPILCASIPGLVPKQLRFCRNYVEIMPSVAEGIKIGIQECQHQFRGRRWNCTTVHDSLAIFGPVLDKATRESAFVHAIASAGVAFAVTRSCAEGTAAICGCSSRHQGSPGKGWKWGGCSEDIEFGGMVSREFADARENRPDARSAMNRHNNEAGRQAIASHMHLKCKCHGLSGSCEVKTCWWSQPDFRAIGDFLKDKYDSASEMVVEKHRESRGWVETLRPRYTYFKVPTERDLVYYEASPNFCEPNPETGSFGTRDRTCNVSSHGIDGCDLLCCGRGHNARAERRREKCRCVFHWCCYVSCQECTRVYDVHTCK
# B2: Dkk-1: recombinant Dkk-1 (R&D Systems), Wnt/Frizzled signaling pathway inhibitor (protein, UniProt O94907 32-266, looked up)
# Dickkopf-related protein 1: TLNSVLNSNAIKNLPPPLGGAAGHPGSAVSAAPGILYPGGNKYQTIDNYQPYPCAEDEECGTDEYCASPTRGGDAGVQICLACRKRRKRCMRHAMCCPGNYCKNGICVSSDQNHFRGEIEETITESFGNDHSTLDGYSRRTTLSSKMYHTKGQEGSVCLRSSDCASGLCCARHFWSKICKPVLKEGQVCTKHRRKGSHGLEIFQRCYCGEGLSCRIQKDHHQASNSSRLHTCQRH
# Assays:
# Assay type in all cases: cell-based, human
# [1] = tested on: hESC-derived retinal progenitor cells; assay: Expression levels of retinal cell markers before and after Wnt3a addition (retinal progenitor cells into neural retinal progenitor cells)
# [2] = tested on: hESC-derived retinal progenitor cells; assay: Differentiation into photoreceptor cells with Wnt3a or its inhibitor Dkk-1, without Shh and retinoic acid; immunofluorescent staining on Day 29
# Description: In order to examine the function of the Wnt signaling pathway activator on differentiation from hESCs into retinal cells, particularly photoreceptor cells, cells were cultured in the presence of a Wnt signaling pathway antagonist. The Wnt/Frizzled signaling pathway inhibitor Dkk-1 (R&D Systems, Minneapolis, Minn., USA) was added at a concentration of 10 ng/ml, 100 ng/ml or 1 μg/ml on day 13, followed by culturing the cells for an additional 16 days. While the antagonist concentrations were maintained uniformly over the culture time period, the Wnt signaling pathway activator was assayed for activity. Dkk-1 was dissolved in 0.1% bovine serum albumin (BSA, Sigma-Aldrich) in PBS before use.
# According to a protocol for differentiation into retinal cells, Wnt3a and Dkk-1 were added on Day 13 at the following concentrations: 50 ng/ml Wnt3a (group I), free of both Wnt3a and Dkk-1 (group II), 10 ng/ml Dkk-1 (group III), 100 ng/ml Dkk-1 (group IV), and […] Dkk-1 (group V). In each medium, the cells were cultured to Day 29. In this experiment, none of the other major differentiation factors Shh and RA were used.
# On Day 29, the cells which had been cultured on poly-D-lysine/laminin-coated, 8-well slides (BD Biosciences) under the conditions of Wnt3a and Dkk-1 (groups I-V) were fixed with 4% paraformaldehyde (Sigma-Aldrich), after which non-specific reactions were blocked with PBS containing 3% BSA (Jackson Immunoresearch Laboratory, Bar Harbor, Me., USA) and 0.25% Triton X-100 (Sigma-Aldrich).
# (§1) After being blocked for 90 min, the slides in each differentiation step were incubated overnight at 4° C. with the following antibodies specific for cells of each differentiation step: rabbit-Blue-opsin (1:500, Chemicon), sheep-Chx10 (1:100, Chemicon), rabbit-Crx (1:200, Santa Cruz Biotechnology, Santa Cruz, Calif., USA), rabbit-GFAP (1:200, Invitrogen), mouse-human specific mitochondria (1:50, Chemicon), rabbit-human specific mitochondria (1:200, Chemicon), mouse-Islet1 (1:10, Developmental Studies Hydroma Bank, DSHB; Iowa City, Iowa, USA), mouse-Ki67 (1:100, Vector Laboratories, Peterborough, England), mouse-Mitf (1:1,000, abcam, Cambridge, Mass., USA), mouse-nestin (1:250, BD Sciences), rabbit-neurofilament-200 (1:1,000, Sigma-Aldrich), rabbit-Otx2 (1:100, abcam), rabbit-Pax2 (1:250, abcam), mouse-Pax6 (1:2, DSHB), mouse-peripherin2 (1:500, GenScript, Piscataway, N.J., USA), rabbit-Rax (1:250, abcam), rabbit-recoverin (1:1,000, Chemicon), retinal pigment epithelium 65 (RPE65, 1:100, Chemicon), rabbit-rhodopsin (1:500, Sigma-Aldrich), mouse-rhodopsin (1:500, Ret-P1, Lab Vision, Fremont, Calif., USA), mouse-rhodopsin (1:2,000, Ret-P1, Sigma-Aldrich), mouse-rom1 (1:50, ABR-Affinity Bioreagents, Golden, Colo., USA), rabbit-PDE6 beta (1:100, abcam), rabbit-phosducin (1:500, Santa Cruz Biotechnology), mouse-PKC-alpha (1:500, Sigma-Aldrich), mouse-Prox1 (1:2,000, Chemicon), mouse-Sox2 (1:250, R&D Systems), rabbit-synaptophysin (1:2,000, Santa Cruz Biotechnology), and rabbit-ZO-1 (1:100, Zymed-Invitrogen).
# Before use, these antibodies were diluted in a PBS solution containing 1% BSA and 0.25% Triton X-100. The cells were washed three times for 5 min with PBS and incubated at room temperature for 2 hrs with species-specific secondary antibody conjugated with Cy3 (1:800, Jackson Immunoresearch Laboratory) or Alexa488 (1:500, Invitrogen). A standard material suitable for the primary and the secondary antibody was used to examine non-specific staining or interaction between the antibodies. Afterwards, the cells were washed three times for 5 min with PBS, counterstained with DAPI (4,6-diamidino-2 phenylindole) and mounted in Vectashield (Vector Laboratories), followed by visualization under an epifluorescence microscope (Nikon Eclipse, E800, Tokyo, Japan) and a confocal microscope (Leica, Leica Microsystems Inc, Bannockburn, Ill., USA or Zeiss LSM510, Carl Zeiss, Inc, Thornwood, N.Y., USA). […]
# [3] = tested on: hESC-derived retinal progenitor cells; assay: Expression levels of retinal cell markers before and after Wnt3a addition (retinal progenitor cells into neural retinal progenitor cells); conditions: on Day 18; Wnt3a 50 ng/ml for 5 days from Day 13
# Description: To differentiate the retinal progenitor cells generated in Example 3 into neural retinal progenitor cells, Dkk-1 supply was quit on day 3 after induction and a culture medium containing a combination of noggin, IGF-1, FGF2 and Wnt3a was supplied for 5 days (FIG. 1). The culture medium was composed as follows: [DMEM/F12 (Invitrogen), 1 mM L-glutamine (Invitrogen), 0.1 mM nonessential amino acids (Invitrogen), 0.1 mM mercaptoethanol (Sigma-Aldrich), 1% B27 supplement (Invitrogen), 1% N2 supplement (Invitrogen), 10 ng/ml noggin, 10 ng/ml IGF-1, 5 ng/ml FGF2, and 50 ng/ml recombinant Wnt3a (R&D Systems)].
# The eye field precursors (floating aggregates) were cultured in 8-well poly-D-lysine/laminin-coated slides (BD Biosciences, Bedford, Mass.) under the same conditions that were used for differentiation into the retinal progenitor cells, the neural retinal progenitor cells, the photoreceptor cell precursors and the photoreceptor cells. The cells completely cultured in each step were fixed with 4% paraformaldehyde (Sigma-Aldrich), after which non-specific reactions were blocked with PBS containing 3% BSA (Jackson Immunoresearch Laboratory, Bar Harbor, Me., USA) and 0.25% Triton X-100 (Sigma-Aldrich).
# as §1
# Before use, these antibodies were diluted in a PBS solution containing 1% BSA and 0.25% Triton X-100. The cells cultured on the slides in each step were washed three times for 5 min with PBS and incubated at room temperature for 2 hrs with species-specific secondary antibody conjugated with Cy3 (1:800, Jackson Immunoresearch Laboratory) or Alexa488 (1:500, Invitrogen). A standard material suitable for the primary and the secondary antibody was used to examine non-specific staining or interaction between the antibodies. Afterwards, the cells were washed three times for 5 min with PBS, counterstained with DAPI (4,6-diamidino-2 phenylindole) and mounted in Vectashield (Vector Laboratories), followed by visualization under an epifluorescence microscope (Nikon Eclipse, E800, Tokyo, Japan) and a confocal microscope (Leica, Leica Microsystems Inc, Bannockburn, Ill., USA or Zeiss LSM510, Carl Zeiss, Inc, Thornwood, N.Y., USA).
# 500 cells were counted from 20 microscopic fields randomly selected at 200 magnification and evaluated for positive responses to each antibody. Positive responses to antibodies were determined after at least three evaluations. […]
# [4] = Wnt3a 50 ng/ml (Group I), from Day 13 to Day 29, no Shh, no RA
# [5] = Dkk-1 10 ng/ml (Group III), from Day 13 to Day 29, no Wnt3a, Shh, RA
# [6] = Dkk-1 10 ng/ml, 100 ng/ml, 1 μg/ml
# [7] = Dkk-1 100 ng/ml (Group IV), from Day 13 to Day 29, no Wnt3a, Shh, RA
# [8] = Dkk-1 1 μg/ml (Group V), from Day 13 to Day 29, no Wnt3a, Shh, RA
molecule,measurement,setting,value
B1,Pax6-positive cells with increase in Wnt3a concentration,[1],increased in a dose-dependent manner
same,Positive rate of Crx,[2]; [4],32.5 (±0.3) %
same,Positive rate of Pax6,[2]; [4],82.1 (±4.0) %
same,Positive rate of peripherin2,[2]; [4],21.5 (±0.3) %
same,Positive rate of recoverin,[2]; [4],72.3 (±0.8) %
same,Positive rate of rhodopsin,[2]; [4],73.8 (±0.9) %
same,Expression level (positive rate) of Chx10 after Wnt3a addition,[3],64.5 (±1.6) %
same,Expression level (positive rate) of Crx after Wnt3a addition,[3],80.1% and 80.1 (±0.2) %
same,Expression level (positive rate) of Ki67 after Wnt3a addition,[3],31.5 (±0.5) %
same,Expression level (positive rate) of Mitf after Wnt3a addition,[3],2.7 (±1.0) %
same,Expression level (positive rate) of Nestin after Wnt3a addition,[3],18.0% and 18.0 (±1.4) %
same,Expression level (positive rate) of Otx2 after Wnt3a addition,[3],61.5 (±0.6) %
same,Expression level (positive rate) of Pax6 after Wnt3a addition,[3],89.1 (±2.5) %
same,Expression level (positive rate) of Peripherin2 after Wnt3a addition,[3],13.9% and 13.9 (±2.4) %
same,Expression level (positive rate) of Rax after Wnt3a addition,[3],98.2 (±0.9) %
same,Expression level (positive rate) of Recoverin after Wnt3a addition,[3],68.5% and 68.5 (±2.6) %
same,Expression level (positive rate) of Rhodopsin after Wnt3a addition,[3],52.9% and 52.9 (±3.4) %
same,Expression level (positive rate) of Sox2 after Wnt3a addition,[3],68.1 (±1.1) %
B2,Positive rate of Crx,[2]; [5],54.3 (±3.1) %
same,Positive rate of Pax6,[2]; [5],63.9 (±0.9) %
same,Positive rate of peripherin2,[2]; [5],27.0 (±1.0) %
same,Positive rate of recoverin,[2]; [5],55.1 (±0.6) %
same,Positive rate of rhodopsin,[2]; [5],49.1 (±2.0) %
same,"Expression level of photoreceptor cell markers Crx, recoverin, rhodopsin and peripherin2 with increasing Dkk-1 concentration",[2]; [6],remarkably decreased
same,Expression level of retinal progenitor cell marker Pax6 with increase in Dkk-1 concentration,[2]; [6],decreased
same,Positive rate of Crx,[2]; [7],7.4 (±1.1) %
same,Positive rate of Pax6,[2]; [7],51.8 (±1.0) %
same,Positive rate of peripherin2,[2]; [7],2.1 (±1.0) %
same,Positive rate of recoverin,[2]; [7],41.5 (±1.3) %
same,Positive rate of rhodopsin,[2]; [7],28.9 (±0.5) %
same,Positive rate of Crx,[2]; [8],7.5 (±0.9) %
same,Positive rate of Pax6,[2]; [8],42.1 (±2.1) %
same,Positive rate of peripherin2,[2]; [8],0.1 (±0.1) %
same,Positive rate of recoverin,[2]; [8],15.2 (±4.0) %
same,Positive rate of rhodopsin,[2]; [8],11.9% and 11.9 (±3.0) %
